In the nanobody polyreactivity screen of Harvey et al. (2022):

experiment: yeast display, Sf9 membrane polyspecificity reagent, FACS + sequencing; frameworks hold sequencing errors
In short: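 Using colony PCR, genes from sorted yeast display clones were amplified, then sequenced on MiSeq at 2 × 250 and filtered by CDR length. The clones had been stained with 10% biotinylated, detergent-solubilized Sf9 membrane reagent for 1 hour at 4 °C and sorted by FACS into low and high (top ~1%) gates on anti-HA and streptavidin fluorescence. Polyreactivity labels come from the gate of origin.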

| Sequence | polyreactivity (PSR sort gate) |
| --- | --- |
| QVQLQESGGGLVQAGGSQRLSCSASGYIFYFQYMGWYRQAPGKEREFVAAISDGANTNYADSVKGRFNISRDNAKNTEYLQMNSLKPEDTAVYYCAARSFFKMYYWGQGTQVTVSS | low polyreactivity |
| QVQLVESGGGLVQAGGSLRLSCADSARTFYYNTKGWYRQAPGKERELVASISGSGGRTYYADSVKGRFTISRDNAKNTVYLQMNSLKPEDTAVYYFAAGSIRYRFPFGYDYWGQGTQVTLSS | high polyreactivity |
| QVQLVESGGGLLQAGGSLRLSCAASGSTFTAYAMGWYRQAPGKERELVADISDSGGSTYYADSEKGRFTISRDNAKNTVYLQINSLKPEDTAVYYCAVHVRAFVVSKFDSRGQGTQVTVSS | low polyreactivity |
| QVQLVESGGGLVQAGGSLRLSCAASGSILGDYAMGWDRQAPGKEREFVAAIDGSDGSTYYADSVKGRFTISRDNAKNTVYLQMNILKPEDTEVYYCAATDYDTYRSSWYVYWGQCTQVTVSS | low polyreactivity |
| QVQLVESGGGLVQAGGSLRLSCSASGRTFGAYAMGWSRQAPGKERELVASISRSGGTTYYADSVKGRFTISRDNAKNTVYLQMNSLKPEDTAVYYCAAQYVRYGHYYWGQGTQVTVSS | high polyreactivity |
| QVQLVESGGGLVQAGGSLRLSCAASGRIFNVYAMGWYRPAPGTERELVAAIRRRGDRTYYADSVKGRFTLSRDNAKNTVYLQMNSLNPEDTADYYCAKSQSAKGGYDYWGQGTQVTVSS | high polyreactivity |
| QVQLVESGGGLVQAGGSLRLSCAASGRTLRYYAMGWYRQAPGKERELVAAISRRGGRTYYADSVKGRFTISRDNAKNTVYLQMNSLKPEDTAVYYCNARYDVYRWRYDYDYWGQGTQVTVSS | high polyreactivity |
| QVQLGESGGGLVQAGGSLRLSCAASGLIFPRYAMGWYRQAPGKERELVAAITRGGSTYYADSVKGRFTISRDNAKNTVYVQMNSLKPEDSAVYYCNDELPVHWSWYDYWGQGTQVTVSS | low polyreactivity |
| QVQLVESGGGLVQAGGSLRLSCAASGRIIEYYAMGWYRQAPGKERELVAAISSGGSTYYADSVKGRFTISRDNAKNTVYLQMNSLKPEDTAVYYCNTRYVYTRGGPLKRDYWGQGTQVTVSS | high polyreactivity |
| QVQLVESGGCLVQAGGSLRLSCAASGSTFIDYAMGWYRQAPGKERELVAAITNGGNTKYADSVKGRFTISRDNAKNTVYLQMNSLKPEDTAVYYCAREPSIFTPSYDYWGQGTQVTVSS | low polyreactivity |
| QVQLVESGGGLVQAGGSLRLSCAASGSTFIYYARGWYRQAPGKERELVASISRSGGSPYYADSVKGRFTISRDNAKNTVYLQMNSLKPEATAVYDCARAYRSSFNYWGQGTQVTVSS | high polyreactivity |
| QVQLVESGGGLVQAGGSLRLICAASGRTFTHNAMGWSRQAPGKERELVAGITSGCSTNYADSVKGRFTISRDNAKNTVYLQMNSLKPEDTAVYYCNKVFFWSRYKGYYYWGQGTQVTVSS | high polyreactivity |
| QVQLVESGGGLVQAGGSLRLSCAASGFIFPTYAMGWYRQAPGKERELVATITTNAGGTYYADSVKGRFTISRDNAKNTVYLQMNSLKPEDTAVYYCAHDYDGYVWDTEYDYWGQGTQVTVSS | low polyreactivity |
| KVQLVESGGGFVQAGGSLRLSCAPSGSIFTWNAMGLYRQAPGKERELVAAITRGGSTYADSVKGRFTLSRDNAKNTVYLQMNSLKPEDTAVYYCNAVYGVYEFNYWGQGTQVTVSS | low polyreactivity |
| QVQLVESGGGLVQAGGSLRLSCAASGRIFYYNAMGWYRQAPGKESELVAAIRYSGGSTSYADSVKGRFTISRDNAKNTVYLQMNSLKPEDTAVYYCAASTSNRWKLNYWGQGTQVTVSS | high polyreactivity |
| QVQLVESGGALVQAGGRLRLSCAASGSTFYTYAMGWYRHAPGKEREIVAAISWSDDSTYYADSVKGRFTISRDNAKNTVYLQMTSLKPEDTAVYYCAAEWGQRGGGGYYYWGQGTQVTVSS | low polyreactivity |
| QVQLVESGGGIVQAGGSLRLSCAASGLTFVNYAMGSYRQAPGKERELVAAITVNGGRTYYADSVKGRFTISRDNAKNTVYLQMFSLKPEDTAVYFCAAVYYRHGYTYSSDYWGQGTQVTVSS | high polyreactivity |
| QVQLVESGGGLVQAGGSLRLSCAASGFIIYSYAMGWYRQAPGKERELVAGITSDGRTYYADSVKGRFTISRDNAKNTVYLQMNSLKPEDTAVYYCAARYYLFYRVSPYYYWGQGTQVTVSS | low polyreactivity |
| QVQLVESGGGLVQAGGSLRLSCAATGSTFRNNAMGWSRQAPGKERELVAAISRGGGSTYYADSVKGRFTISRDNAKNTVYLQMNSLKPEVTAVYYCARRPTGIYDYWGQGTQVTLSS | high polyreactivity |
| QVQLVESGGGLVQAGGSLRLSCAASGRIFYYYAMGWYRQAPGKESELVAAISGGGGRTYYADSVKGRFTISRDNAKHTVYLQMNSLKPEDTAVYYCNADYFYRTVNQRYDYWGQGTQVTVSS | high polyreactivity |
| QVQLVESGGGLVQAGGSLRLSCAASGFIFPGYAMGWYRQAPGKERELVATISRRGGSTYYADSVKGRFTISRDNAKNTVYLQMNSLQPEDTAVYYCNRIVTYGWQYDYDYWGQGTQVTVSS | high polyreactivity |
| QVQLVESGGGLVQAGGSLRLSCAASGSTFYYYAMGWYRQAPGKERELVAAINSGGRTNYADSVKGRFTISRDNAKNTVYLQMNSLKPEDTAVYSCARDGYHRDYDYWGQGTQVTVSS | low polyreactivity |

| Sequence | polyreactivity (PSR sort gate) |
| --- | --- |
| QVQLVESGGGLVQAGGSLRLSCAASGRIFGSYAMGWYRQAPGKERELVAAISGGGSTNYADSVKGRFTISRDNAKNTVYLQMNSLKPEDSAVYYCTADRGFAVIVLYGYWGQGTQVTVSS | low polyreactivity |
| QVQLVESGGGLVQAGGSLRLSCAASGLPFQEYAMGWYRQAPGKEREFVAAISASGGSTYYADSVKGRFTISRDNAKNTVYLQMNSLKPEDTAVYYCNKYGTVGYGSYGYWGQGTQVTVSS | high polyreactivity |
| QVQLVESGGGLVQAGGSLRLSCAASGIIFAFYAMGWYRQAPGKERELVAAISIDGSTYYADSVKGRFTISRDNAKNTVYLQMNSLKPEDTAVYYCAAEGNGYLVSTWWVRYEYWGQGTQVTVSS | low polyreactivity |
| QVQLVESGGGLVQAGGSLRLSCAASGGTQVKYAMGWYRQAPGKERELVAAISRSTGNTYYADSVKGRFTISRDNAKNTVYLQMNSLKPEDTAVYYCAALKYTVGGKFGYWGQGTQVTVSS | high polyreactivity |
| QVQLVESRGGLVQAGGSLRLSCAASGSTFFRYAMGWYRQAPGKERELVAAITDSDGSTYYADSVKGRFTISRDNAKNTVYLQMNSLKPEDTAVYYCAAAHPDGWTVYNPQGGAWYDYWGQGSQVTVSS | low polyreactivity |
| QVQLVESGGGLVQAGGSLRLSCAASGFTFTRYTMGWYSQEPGKERELVARITRSGGSTYYADSVKGRFTISRDNAKNTVYLQMNSLKPEDTAVYYCAADTWSYTTRYYYWGQGTQVTVSS | high polyreactivity |
| QVQLVESGGGLVQAGGSLRLSCAASGGTCWWYAMGWYRQAPGKEREFVAAISQRGTSTYYADSVKGRFTISRDNAKNTVYLQMNSLKPEDTAVYYCAVRAYRWRSTLGLYYWGQGTQVTVSS | high polyreactivity |
| QVQLVESGGGLVQAGGSLRLSCAASGSTFDIYAMGWYRQAPGKERELVAVISGGDGSTYYADSVKGRFTISRDNAKNTVYLQMNSLKPEDTAVYFCAADYISPGYWDGEYDCWGQGTQVTVSS | low polyreactivity |
| RVQHVESGGGLVQAGGSLRLSCAASGYTFEAYAMGWYRPAPGKERELVAAINYSGGSTYADSVKGRFTISRDNAKNNVYLQMHSLKPEDTAVYYCATRLYGYWTYGFDYWGQGTQVTVSS | low polyreactivity |
| QVQLVESGGGLVQAGGSLRLSCAASGFTFYFYAMGWYRQAPGKERELVAAISRGGSTTYADSVKGRFTISRDNAKNTVYLQMNSLKPEDTAVYYCAVGYDIVRYSYSPFYRYDYWGQGTQVTVSS | low polyreactivity |
| QVQLVESGGGLVQAGGSLRLSCDASGSIFYRYAMGWYRQAPGKERELVASISSGVSTNYADSVKGRFTISRDNAKNTVYLQMNSLKPEDTAVYYCAAYYRGWSSSYWYPAYNYWGHGTQVTVSS | low polyreactivity |
| QVQLVESGGGLVQAGGSLRLSCSASGRIFVIYDMGWYRQAPGKEWEFVAAISWRTGSTYYADSVKGRFTISRDNAKNTVYLQMNSLKPEDTAVYYCAASIGLVHYDYWGQGTQVTVSS | low polyreactivity |
| QVQLVESGGGLVQAGGSLRLSCAASGSIFSFNAMGRSRQAPGKERELVASITSGGSTNYADSVKGRFTISRDNAKNTVYLQMNSLKPEDTEVYYCNARFPYLSRWLVRGLASYDYWGQGTQVTVSS | low polyreactivity |
| QVQLVESGGGLVQAGGSLRLSCAASGFIFLKYRMGWYRQAPGKEREFVAAISRRGGSTNYADSVKGRFTISRDNEKNTVYLQMNSLKPEDTAVYYCGTDAFAGPVSYYYWGQGTQVSVSS | high polyreactivity |
| QVQLVESGGGLVQAGRSLRLSCAASGITFPVYPMGWYRQAPGKERELVATITSSGGRTYYADSVKGRFTISRDNAKNTVYLQMNSLKPEDSAVYYCAAANGKGQGGYDYWGHGTQVTVSS | high polyreactivity |
| QVKLLESVGGLVQAGGSLRLSCMASGSILGDRMSWYRQPPGKEHELVATIYDGGITYYADSMKGRFTISRDNAKNTVYLQMNSLRPEDTAVYYCGASLEGYRYHVYCGQGTQVTVSS | low polyreactivity |
| QVQLVESGGGLVQAGGSLRLSCAASGRTFYPYAMGWYRQAPGKERELVASINWSGASTYYADSVKGRFTISRDNAKNTVYLQMNSLKPEDTAVYYCAAYITYLSSRFWYGYWGQGTQVTVSS | high polyreactivity |
| QVQLVESGGVLVQAGGSLRLSCAASGSIFEVNSMGWYRQAPGKERELVDTITYSGGSTYYADSVKGRFTLSRDNAKNNVYLQMNSLKPEDTAVYYCATDYVDWELYIYDYWGQGTQVTVSS | low polyreactivity |
| QVQLVESGGGLVQAGGSLRLSCAASGTFYRNAMGWYRQAPGKERELVAAISSGSNTDYADSVKGRFTISRDNAKNTVYLQMNSLKPEDTAVYYCNADRGDLYELRGSGYLDGYWGQGTQVTVSS | low polyreactivity |
| QVQLVESGGGLVQAGGSLRISCAASGLTFDRYAMGWYRQAPGKERELVAAISGSGSSTYYADSAKGRFTISRDNAKNTVYLQMNSLKPEDTAVYYCAADRDLGYDTRYNYWGQGTQVTVSS | low polyreactivity |
| QVQLVESGGGLVQAGGSLRISCAASGSIFTSNVMGWYRQAPGKERELVAAITITGTTNYADSVKGRFTISRDNAKNTVYLQMNSLKPEDTAVYYCAKRYYRFYQGWPPEDYWGQGTQVTVSS | low polyreactivity |
